# Reference: US20220040297A1 (Chugai, published 2022)
# Target: CD3ε homodimer protein (human, UniProt P07766 23-126, limits assumed)
# Assay: SPR, immobilized CD3ε homodimer;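 note: biacore T200 surface plasmon resonance at 25 °C, antibody variants flowed as analytes over amine-coupled CD3ε homodimer on a CM4 chip, variant binding amount divided by that of GLS3000 antibody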
# Chain of CD3ε homodimer protein (P07766 23-126 limits assumed): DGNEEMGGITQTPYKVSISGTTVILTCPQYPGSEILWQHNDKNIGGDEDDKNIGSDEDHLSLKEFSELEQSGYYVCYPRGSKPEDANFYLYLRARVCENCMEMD
row,Binder,ratio of amounts bound (vs GLS3000)
1,"GLS3000 Q90D (antibody, name in Kabat numbering, V domains shown, one-arm format as m2) VH: QVQLVESGGGVVQPGRSLRLSCAASGFTFSNAWMHWVRQAPGKGLEWVAQIKAKSNNYATYYAESVKGRFTISRDDSKNSLYLQMNSLKTEDTAVYYCRYVHYGAYYGVDAWGQGTTVTVSS VL: DIVMTQSPLSLPVTPGEPASISCRSSQSLVHSNRNTYLHWYQQKPGQAPRLLIYKVSNRFSGVPDRFSGSGSGTDFTLKISRVEAEDVGVYYCGDGTQVPYTFGQGTKLEIK",0.19
2,"GLS3000 R24Y (antibody, name in Kabat numbering, V domains shown, one-arm format as m2) VH: QVQLVESGGGVVQPGRSLRLSCAASGFTFSNAWMHWVRQAPGKGLEWVAQIKAKSNNYATYYAESVKGRFTISRDDSKNSLYLQMNSLKTEDTAVYYCRYVHYGAYYGVDAWGQGTTVTVSS VL: DIVMTQSPLSLPVTPGEPASISCYSSQSLVHSNRNTYLHWYQQKPGQAPRLLIYKVSNRFSGVPDRFSGSGSGTDFTLKISRVEAEDVGVYYCGQGTQVPYTFGQGTKLEIK",0.87
3,"GLS3000 Q90S (antibody, name in Kabat numbering, V domains shown, one-arm format as m2) VH: QVQLVESGGGVVQPGRSLRLSCAASGFTFSNAWMHWVRQAPGKGLEWVAQIKAKSNNYATYYAESVKGRFTISRDDSKNSLYLQMNSLKTEDTAVYYCRYVHYGAYYGVDAWGQGTTVTVSS VL: DIVMTQSPLSLPVTPGEPASISCRSSQSLVHSNRNTYLHWYQQKPGQAPRLLIYKVSNRFSGVPDRFSGSGSGTDFTLKISRVEAEDVGVYYCGSGTQVPYTFGQGTKLEIK",0.73
4,"GLS3000 R24G (antibody, name in Kabat numbering, V domains shown, one-arm format as m2) VH: QVQLVESGGGVVQPGRSLRLSCAASGFTFSNAWMHWVRQAPGKGLEWVAQIKAKSNNYATYYAESVKGRFTISRDDSKNSLYLQMNSLKTEDTAVYYCRYVHYGAYYGVDAWGQGTTVTVSS VL: DIVMTQSPLSLPVTPGEPASISCGSSQSLVHSNRNTYLHWYQQKPGQAPRLLIYKVSNRFSGVPDRFSGSGSGTDFTLKISRVEAEDVGVYYCGQGTQVPYTFGQGTKLEIK",0.89
5,"GLS3000 Q93P (antibody, name in Kabat numbering, V domains shown, one-arm format as m2) VH: QVQLVESGGGVVQPGRSLRLSCAASGFTFSNAWMHWVRQAPGKGLEWVAQIKAKSNNYATYYAESVKGRFTISRDDSKNSLYLQMNSLKTEDTAVYYCRYVHYGAYYGVDAWGQGTTVTVSS VL: DIVMTQSPLSLPVTPGEPASISCRSSQSLVHSNRNTYLHWYQQKPGQAPRLLIYKVSNRFSGVPDRFSGSGSGTDFTLKISRVEAEDVGVYYCGQGTPVPYTFGQGTKLEIK",0.25
6,"GLS3000 Q93S (antibody, name in Kabat numbering, V domains shown, one-arm format as m2) VH: QVQLVESGGGVVQPGRSLRLSCAASGFTFSNAWMHWVRQAPGKGLEWVAQIKAKSNNYATYYAESVKGRFTISRDDSKNSLYLQMNSLKTEDTAVYYCRYVHYGAYYGVDAWGQGTTVTVSS VL: DIVMTQSPLSLPVTPGEPASISCRSSQSLVHSNRNTYLHWYQQKPGQAPRLLIYKVSNRFSGVPDRFSGSGSGTDFTLKISRVEAEDVGVYYCGQGTSVPYTFGQGTKLEIK",0.96
7,"GLS3000 R24T (antibody, name in Kabat numbering, V domains shown, one-arm format as m2) VH: QVQLVESGGGVVQPGRSLRLSCAASGFTFSNAWMHWVRQAPGKGLEWVAQIKAKSNNYATYYAESVKGRFTISRDDSKNSLYLQMNSLKTEDTAVYYCRYVHYGAYYGVDAWGQGTTVTVSS VL: DIVMTQSPLSLPVTPGEPASISCTSSQSLVHSNRNTYLHWYQQKPGQAPRLLIYKVSNRFSGVPDRFSGSGSGTDFTLKISRVEAEDVGVYYCGQGTQVPYTFGQGTKLEIK",0.88
8,"GLS3000 R24D (antibody, name in Kabat numbering, V domains shown, one-arm format as m2) VH: QVQLVESGGGVVQPGRSLRLSCAASGFTFSNAWMHWVRQAPGKGLEWVAQIKAKSNNYATYYAESVKGRFTISRDDSKNSLYLQMNSLKTEDTAVYYCRYVHYGAYYGVDAWGQGTTVTVSS VL: DIVMTQSPLSLPVTPGEPASISCDSSQSLVHSNRNTYLHWYQQKPGQAPRLLIYKVSNRFSGVPDRFSGSGSGTDFTLKISRVEAEDVGVYYCGQGTQVPYTFGQGTKLEIK",0.75
9,"GLS3000 Q93Y (antibody, name in Kabat numbering, V domains shown, one-arm format as m2) VH: QVQLVESGGGVVQPGRSLRLSCAASGFTFSNAWMHWVRQAPGKGLEWVAQIKAKSNNYATYYAESVKGRFTISRDDSKNSLYLQMNSLKTEDTAVYYCRYVHYGAYYGVDAWGQGTTVTVSS VL: DIVMTQSPLSLPVTPGEPASISCRSSQSLVHSNRNTYLHWYQQKPGQAPRLLIYKVSNRFSGVPDRFSGSGSGTDFTLKISRVEAEDVGVYYCGQGTYVPYTFGQGTKLEIK",0.87
10,"GLS3000 Q93D (antibody, name in Kabat numbering, V domains shown, one-arm format as m2) VH: QVQLVESGGGVVQPGRSLRLSCAASGFTFSNAWMHWVRQAPGKGLEWVAQIKAKSNNYATYYAESVKGRFTISRDDSKNSLYLQMNSLKTEDTAVYYCRYVHYGAYYGVDAWGQGTTVTVSS VL: DIVMTQSPLSLPVTPGEPASISCRSSQSLVHSNRNTYLHWYQQKPGQAPRLLIYKVSNRFSGVPDRFSGSGSGTDFTLKISRVEAEDVGVYYCGQGTDVPYTFGQGTKLEIK",0.72
11,"GLS3000 Q90Y (antibody, name in Kabat numbering, V domains shown, one-arm format as m2) VH: QVQLVESGGGVVQPGRSLRLSCAASGFTFSNAWMHWVRQAPGKGLEWVAQIKAKSNNYATYYAESVKGRFTISRDDSKNSLYLQMNSLKTEDTAVYYCRYVHYGAYYGVDAWGQGTTVTVSS VL: DIVMTQSPLSLPVTPGEPASISCRSSQSLVHSNRNTYLHWYQQKPGQAPRLLIYKVSNRFSGVPDRFSGSGSGTDFTLKISRVEAEDVGVYYCGYGTQVPYTFGQGTKLEIK",0.17
12,"GLS3000 Q93E (antibody, name in Kabat numbering, V domains shown, one-arm format as m2) VH: QVQLVESGGGVVQPGRSLRLSCAASGFTFSNAWMHWVRQAPGKGLEWVAQIKAKSNNYATYYAESVKGRFTISRDDSKNSLYLQMNSLKTEDTAVYYCRYVHYGAYYGVDAWGQGTTVTVSS VL: DIVMTQSPLSLPVTPGEPASISCRSSQSLVHSNRNTYLHWYQQKPGQAPRLLIYKVSNRFSGVPDRFSGSGSGTDFTLKISRVEAEDVGVYYCGQGTEVPYTFGQGTKLEIK",0.75
13,"GLS3000 R24A (antibody, name in Kabat numbering, V domains shown, one-arm format as m2) VH: QVQLVESGGGVVQPGRSLRLSCAASGFTFSNAWMHWVRQAPGKGLEWVAQIKAKSNNYATYYAESVKGRFTISRDDSKNSLYLQMNSLKTEDTAVYYCRYVHYGAYYGVDAWGQGTTVTVSS VL: DIVMTQSPLSLPVTPGEPASISCASSQSLVHSNRNTYLHWYQQKPGQAPRLLIYKVSNRFSGVPDRFSGSGSGTDFTLKISRVEAEDVGVYYCGQGTQVPYTFGQGTKLEIK",0.86
14,"GLS3000 R24P (antibody, name in Kabat numbering, V domains shown, one-arm format as m2) VH: QVQLVESGGGVVQPGRSLRLSCAASGFTFSNAWMHWVRQAPGKGLEWVAQIKAKSNNYATYYAESVKGRFTISRDDSKNSLYLQMNSLKTEDTAVYYCRYVHYGAYYGVDAWGQGTTVTVSS VL: DIVMTQSPLSLPVTPGEPASISCPSSQSLVHSNRNTYLHWYQQKPGQAPRLLIYKVSNRFSGVPDRFSGSGSGTDFTLKISRVEAEDVGVYYCGQGTQVPYTFGQGTKLEIK",0.7
15,"GLS3000 Q93R (antibody, name in Kabat numbering, V domains shown, one-arm format as m2) VH: QVQLVESGGGVVQPGRSLRLSCAASGFTFSNAWMHWVRQAPGKGLEWVAQIKAKSNNYATYYAESVKGRFTISRDDSKNSLYLQMNSLKTEDTAVYYCRYVHYGAYYGVDAWGQGTTVTVSS VL: DIVMTQSPLSLPVTPGEPASISCRSSQSLVHSNRNTYLHWYQQKPGQAPRLLIYKVSNRFSGVPDRFSGSGSGTDFTLKISRVEAEDVGVYYCGQGTRVPYTFGQGTKLEIK",1.13
16,"GLS3000 R24S (antibody, name in Kabat numbering, V domains shown, one-arm format as m2) VH: QVQLVESGGGVVQPGRSLRLSCAASGFTFSNAWMHWVRQAPGKGLEWVAQIKAKSNNYATYYAESVKGRFTISRDDSKNSLYLQMNSLKTEDTAVYYCRYVHYGAYYGVDAWGQGTTVTVSS VL: DIVMTQSPLSLPVTPGEPASISCSSSQSLVHSNRNTYLHWYQQKPGQAPRLLIYKVSNRFSGVPDRFSGSGSGTDFTLKISRVEAEDVGVYYCGQGTQVPYTFGQGTKLEIK",0.89
17,"GLS3000 Q90P (antibody, name in Kabat numbering, V domains shown, one-arm format as m2) VH: QVQLVESGGGVVQPGRSLRLSCAASGFTFSNAWMHWVRQAPGKGLEWVAQIKAKSNNYATYYAESVKGRFTISRDDSKNSLYLQMNSLKTEDTAVYYCRYVHYGAYYGVDAWGQGTTVTVSS VL: DIVMTQSPLSLPVTPGEPASISCRSSQSLVHSNRNTYLHWYQQKPGQAPRLLIYKVSNRFSGVPDRFSGSGSGTDFTLKISRVEAEDVGVYYCGPGTQVPYTFGQGTKLEIK",0.27
18,"GLS3000 R24E (antibody, name in Kabat numbering, V domains shown, one-arm format as m2) VH: QVQLVESGGGVVQPGRSLRLSCAASGFTFSNAWMHWVRQAPGKGLEWVAQIKAKSNNYATYYAESVKGRFTISRDDSKNSLYLQMNSLKTEDTAVYYCRYVHYGAYYGVDAWGQGTTVTVSS VL: DIVMTQSPLSLPVTPGEPASISCESSQSLVHSNRNTYLHWYQQKPGQAPRLLIYKVSNRFSGVPDRFSGSGSGTDFTLKISRVEAEDVGVYYCGQGTQVPYTFGQGTKLEIK",0.83
19,"GLS3000 Q93A (antibody, name in Kabat numbering, V domains shown, one-arm format as m2) VH: QVQLVESGGGVVQPGRSLRLSCAASGFTFSNAWMHWVRQAPGKGLEWVAQIKAKSNNYATYYAESVKGRFTISRDDSKNSLYLQMNSLKTEDTAVYYCRYVHYGAYYGVDAWGQGTTVTVSS VL: DIVMTQSPLSLPVTPGEPASISCRSSQSLVHSNRNTYLHWYQQKPGQAPRLLIYKVSNRFSGVPDRFSGSGSGTDFTLKISRVEAEDVGVYYCGQGTAVPYTFGQGTKLEIK",0.85
20,"GLS3000 Q90E (antibody, name in Kabat numbering, V domains shown, one-arm format as m2) VH: QVQLVESGGGVVQPGRSLRLSCAASGFTFSNAWMHWVRQAPGKGLEWVAQIKAKSNNYATYYAESVKGRFTISRDDSKNSLYLQMNSLKTEDTAVYYCRYVHYGAYYGVDAWGQGTTVTVSS VL: DIVMTQSPLSLPVTPGEPASISCRSSQSLVHSNRNTYLHWYQQKPGQAPRLLIYKVSNRFSGVPDRFSGSGSGTDFTLKISRVEAEDVGVYYCGEGTQVPYTFGQGTKLEIK",0.85
21,"GLS3000 R24Q (antibody, name in Kabat numbering, V domains shown, one-arm format as m2) VH: QVQLVESGGGVVQPGRSLRLSCAASGFTFSNAWMHWVRQAPGKGLEWVAQIKAKSNNYATYYAESVKGRFTISRDDSKNSLYLQMNSLKTEDTAVYYCRYVHYGAYYGVDAWGQGTTVTVSS VL: DIVMTQSPLSLPVTPGEPASISCQSSQSLVHSNRNTYLHWYQQKPGQAPRLLIYKVSNRFSGVPDRFSGSGSGTDFTLKISRVEAEDVGVYYCGQGTQVPYTFGQGTKLEIK",0.9
